Tests used:
[1] = target: LRP6 of Super TopFlash (STF, HEK293) cells (UniProt O75581 20-1613, limits assumed); test: cell-based or functional assay
[2] = target: T1, human LRP6 on huLRP6-expressing BaF3 cells (human, UniProt O75581 20-1613); test: FACS LRP6 binding assay, competition with anti-LRP6 antibody (FIG. 50)
T1 construct: whole, on cells; also called Lipoprotein receptor like protein 6
T1 sequence (O75581 20-1613): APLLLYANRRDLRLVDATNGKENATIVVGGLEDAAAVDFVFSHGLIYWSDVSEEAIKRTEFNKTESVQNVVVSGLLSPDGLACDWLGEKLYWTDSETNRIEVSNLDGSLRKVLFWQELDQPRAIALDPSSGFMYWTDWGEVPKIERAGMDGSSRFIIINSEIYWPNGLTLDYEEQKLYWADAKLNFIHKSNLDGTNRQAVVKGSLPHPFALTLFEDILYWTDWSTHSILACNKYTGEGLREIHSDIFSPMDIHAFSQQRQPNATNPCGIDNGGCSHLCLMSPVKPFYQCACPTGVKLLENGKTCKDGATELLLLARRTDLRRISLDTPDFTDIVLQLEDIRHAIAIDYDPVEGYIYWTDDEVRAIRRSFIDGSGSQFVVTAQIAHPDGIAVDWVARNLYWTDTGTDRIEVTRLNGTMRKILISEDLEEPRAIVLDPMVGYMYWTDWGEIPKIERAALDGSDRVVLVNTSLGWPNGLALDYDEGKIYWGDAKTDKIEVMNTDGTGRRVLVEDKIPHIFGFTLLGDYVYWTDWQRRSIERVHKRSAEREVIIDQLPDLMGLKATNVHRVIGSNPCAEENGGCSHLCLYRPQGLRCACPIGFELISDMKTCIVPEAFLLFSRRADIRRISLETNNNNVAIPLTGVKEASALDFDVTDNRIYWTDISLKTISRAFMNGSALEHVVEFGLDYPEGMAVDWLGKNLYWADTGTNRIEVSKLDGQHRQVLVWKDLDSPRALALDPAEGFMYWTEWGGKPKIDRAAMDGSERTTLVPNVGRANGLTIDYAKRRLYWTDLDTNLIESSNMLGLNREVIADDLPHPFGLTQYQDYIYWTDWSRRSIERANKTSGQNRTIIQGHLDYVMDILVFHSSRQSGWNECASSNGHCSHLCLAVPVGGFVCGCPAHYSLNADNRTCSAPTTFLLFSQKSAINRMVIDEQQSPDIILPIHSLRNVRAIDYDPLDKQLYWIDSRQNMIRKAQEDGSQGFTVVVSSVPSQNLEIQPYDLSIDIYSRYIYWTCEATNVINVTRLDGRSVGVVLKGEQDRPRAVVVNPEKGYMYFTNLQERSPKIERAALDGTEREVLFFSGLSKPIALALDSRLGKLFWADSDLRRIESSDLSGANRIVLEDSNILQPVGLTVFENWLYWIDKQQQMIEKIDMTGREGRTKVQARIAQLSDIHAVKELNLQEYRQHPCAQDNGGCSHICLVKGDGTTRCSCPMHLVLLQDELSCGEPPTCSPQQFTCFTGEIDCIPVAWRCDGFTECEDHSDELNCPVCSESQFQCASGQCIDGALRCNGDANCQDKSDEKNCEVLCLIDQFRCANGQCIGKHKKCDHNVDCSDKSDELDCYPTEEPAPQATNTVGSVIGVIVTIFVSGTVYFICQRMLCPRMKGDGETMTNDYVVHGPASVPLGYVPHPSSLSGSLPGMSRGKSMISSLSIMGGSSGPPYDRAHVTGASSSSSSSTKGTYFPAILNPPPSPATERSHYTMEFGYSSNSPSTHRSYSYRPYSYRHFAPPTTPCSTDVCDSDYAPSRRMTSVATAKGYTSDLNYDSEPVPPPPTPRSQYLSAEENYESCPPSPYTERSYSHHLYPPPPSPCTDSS

LRP6 of Super TopFlash (STF, HEK293) cells, sequence (O75581 20-1613 limits assumed): as the sequence (O75581 20-1613) above

| IC50 in the Wnt signaling Super Top Flash (STF) activity assay [1] [nM] | IC50 [2] [nM] | Binder |
| --- | --- | --- |
| ~20 | 20 | untagged murine DKK2-C2 from E. coli (ligand, also called E. coli DKK2 C2; non-PEGylated untagged DKK2-C2) GSMPHIKGHEGDPCLRSSDCIDGFCCARHFWTKICKPVLHQGEVCTKQRKKGSHGLEIFQRCDCAKGLSCKVWKDATYSSKARLHVCQKI |
| – | 326 | PEGylated untagged murine DKK2-C2 from E. coli (ligand, monoPEGylated with 20k-PEG-2-methyl proprionaldehyde and sodium cyanoborohydride; site not stated, also called monoPEGylated DKK2 C2; PEGylated version of DKK2 C2) GSMPHIKGHEGDPCLRSSDCIDGFCCARHFWTKICKPVLHQGEVCTKQRKKGSHGLEIFQRCDCAKGLSCKVWKDATYSSKARLHVCQKI |

Reference: US20200270335A1 (Biogen, published 2020)
